Data published in the DeepSol protein solubility set.

test: soluble on expression in E. coli; label from the status in PepcDB or PDB records

Which “soluble on expression in E. coli” value does the source give for “MGSDKIHHHHHHMAFQNIQRFQNQDLIRVGNDDNYLLLAPHYGGRLVRWVRHGEEILYWPEAADWSRPAKIRGGNPLLFPFIGRHFADGEAGRWRDANGTTHTLPQHGFARDLPFTVVAADDDKIVMALESSDSTRAGYPYAFRFEASYVMLEDGVEVALRSENTGSDRLPYYAGHHFYFSLPAAHRPDTRLLLPEAVRLRQEPDGRLTHAIQGEPAYALDDDRLQDTFHALRGGGSVTLAMPGRTLAIDLDVPGCVAWHAVTTWTESKDADFYCVEPWLGLPDAIHHGHGLRWLEPGEQETAVCRVRVVA” here?
Its value is “not soluble”.

For “PMSEIVRVHASSGTTGKPTVVGYTRRDIAMWSEVVARALNCAGASREDFIQIAYGYGLFTGGLGLHYGSEKLGATVIPISGGNTQKQVQLMADFKTTVLACTPSYALYLAESLEEAGMTTDDISLRVGIFGAEPWTPGMRKEIEIKLGIKAMDIYGLSEVMGPGVACDCEYQAGLHVN”, which “soluble on expression in E. coli” value is on record?
Its value is “not soluble”.

Which “soluble on expression in E. coli” value does the source give for “MGSDKIHHHHHHMTAIQHIERLARGRSEQAVAVIKNVQQMSNIPMHEMQLALKQLLNCGRIALHFHPDRIDSRGMTVAEGLLRDGQYRSQFETHISNGQLSPELGGPRDHWENQLFGDVYKGTKSRPKYGALDLGMWQDGPAPRFGSCYLLTHASVMARSTFCYLDSYRNPKEKGTLSCFDDVLAALLTESFERHYALGKSDFKPLNVIHYLGHQLNASLLSRFERPLSNNLDHYIEAQIHGDVSLDEDIAMLVADPSFKGTDIGASLSKICDRYDIELQYHDGFSLHTAQIPSDFRGPTMPSQANRIAIEDRVDAYAIGVAARDLYHSPQHWRDRGNRAQVAHELKLLWHVLVKYGAVQ” here?
The value was “not soluble”.

Which “soluble on expression in E. coli” value does the source give for “MTEMIRPRVKYVIGPDGSPLTIADLPPANTRRWVIRRKAEVVAAVRGGLLSLEEACERYTLTVEEFLSWQSSISDHGLAGLRTTRIQQYRHAAALEHHHHHH” here?
The value was “soluble”.

Which “soluble on expression in E. coli” value does the source give for “MSLNNDDSPALTLDEYKQAQAIVILGGGSYQTKELYAETASGAPQLERLRYAAFLQKETGLPILTTGYSLIGISEGDLMAKELNQFFNVPTQWIENKARNTEENASFTKNILIKDHIQKIILVTNQWHMKRAKYLFEKQGFDVLPAAAASYGSKGNLSAKSFIPDLGALNSNMVLLKEWIGYWKAHYVEEGHHHHHH” here?
The value was “not soluble”.

Which “soluble on expression in E. coli” value does the source give for “MEIYLVFVDAASNSNKFWTAKVEQNQLTVQWDRVGYKAQTKVHQFTSQAQAANKYNNLVFEKKAKGYQESQPQIESCGVVDIRRAMQLLNGLRSYVTNRNFNADYINLLNQYLKIIPTPLGMQLEPYRIFTSVADVDHQRELLSSLIPATPVAVTQAKQMPESQEKIVSLRGIHKNLWRHFLEHHHHHH” here?
Its value is “not soluble”.

With “MILQELPDLEELFLCLNDYETVSCPSICCHSLKLLHITDNNLQDWTEIRKLGVMFPSLDTLVLANNHLNAIEEPDDSLARLFPNLRSISLHKSGLQSWEDIDKLNSFPKLEEVRLLGIPLLQPYTTEERRKLVIARLPSVSKLNGSVVTDGEREDSERFFIRYYVDVPQEEVPFRYHELITKYGKLEPLAEVDLRPQSSAKVEVHFNDQVEEMSIRLDQTVAELKKQLKTLVQLPTSNMLLYYFDHEAPFGPEEMKYSSRALHSFGIRDGDKIYVESKTK” as the sequence, how does the “soluble on expression in E. coli” value read?
Its value is “soluble”.

For “MGHHHHHHSHNSSSCPEIQGFLHVKELGKKSWKKLYVCLRRSGLYCSTKGTSKEPRHLQLLADLEDSNIFSLIAGRKQYNAPTDHGLCIKPNKVRNETKELRLLCAEDEQTRTCWMTAFRLLKYGMLLYQNYRIPQQRKALLSPFSTPVRSVSENSLVAMDFSGQTGRVIENPAEAQSAALEEGHAWRKRSTRMNILGSQSPLHPSTLSTVIHRTQ”, which “soluble on expression in E. coli” value is on record?
The value was “not soluble”.

For “MLTSRALRIPRKPFVDLDYARHMPSAYVERTKRTVPRKVFGDRFGAPDIKMYYVHPDDYVPSHRRPWEDKQISSHLHRSDKYFSAQLSNQYFNLRRPKSERMADTEWTFFPGDLVQVMVGKDKGRQGLVLTTSRDSSDVIVDGLHTKLGEDMEGSEKLGVDKTLRWQEQPLSVSKKQVMLVDPNDEQPCEARWQLNGPGDEYIRVSTRSGYEIPIPSQAKVTYEYLQPENYIEVEGKDTPADAVLERTYMPKVASFEQEIMEEMGIKEERTPKPTFWY”, which “soluble on expression in E. coli” value is on record?
Its value is “not soluble”.

With “GPGSMMRTQQVDPDLTPVLAALASRINRDLPTVVELLCRRLVVQWNRAYLRKDWRFVENASRYLGWLFLLNVVEVDIIYQLLLKHLTSEKRREEDIDQAAKLFRETFKVMSLKERRSFHEQILTPFRDLLAMDDEELRLSTRSQAVLESCLKEVQEWERRKEREEAIPDYLVLFDLEMQQRHEMDLDEKYPTEDALDRYAFDAEYDTHEEQYEAVRKAILGEDWEVELLQQV” as the sequence, how does the “soluble on expression in E. coli” value read?
The value was “not soluble”.

With “MEDDDSPSSRDLDAQNPYDRLLALDTSTVDPNCNLDSVSAIYLAMKSSKLECVDERGQDSLITSVCMEDEEDEELDEFDPYLFIKNLPNLSSVVPTFRPVLLPKQTRSCPPISLVLDLDETLVHSTLEPCGEVDFTFPVNFNEEEHMVYVRCRPHLKEFMERVSRLFEIIIFTASQSIYAEQLLNVLDPKRKLFRHRVYRDSCVFFDGNYLKDLSVLGRDLSRVIIVDNSPQAFGFQVENGVPIESWFNDPSDKELLHLLPFLESLIGVEDVRPMIAKKFNLREKIDAAVAAPEYPAEAGDPFER” as the sequence, how does the “soluble on expression in E. coli” value read?
The value was “soluble”.

Which “soluble on expression in E. coli” value does the source give for “MITWADALGFRLVVVDSLGSADQEVVEAEDGEPFERHEMRRLTRPLWTRRKARKLSQGDLALLLGVSRASVQRWEDADKFPRPIALIAWAGRLECSVELDRVTSENDRPQPGREEA” here?
Its value is “not soluble”.

Which “soluble on expression in E. coli” value does the source give for “MGSDKIHHHHHHMTKMLRTYKFRIYPTREQEEKLAKHFGHTRFVYNFFLNYANIIYRVMERPTYYNEWASVLVKLKKTNKYSWLNEVNSQALQQSLKDLERAFKNFFKKQAGYPKFKKKKFSRQTFRIPQHIQLYIKEDNPKYGCIFVPKFKEGIKVRLHRKLPKDGKIKQATFIKTATNKYYAAIVFEVQDAEVQNTSTGILGIDLGIKDTITLSDGKKYKMPDLSKYERQIKRLHRRLSRKQRGSKNWEKARLCLAKLYEKIVNIKNDWLHKITHDLVSESQAGKIVVEDLNIKGMVQNHRLARHIHMQSWRRFLELLEYKAKRCGIEVIKANRYYPSSQMCSECGYINKEVKDLSVREWTCPVCGAHHDRDVNAAKNLVRYGLMLSIGREPSEFTPVDSALAAEPERGLRAITG” here?
The value was “not soluble”.

With “MPRYPFRRFGFGALRRLLYLWVRSETINQSAFTLKIDRSKPVLYVLQQPSVSDLAVVDTECRKAGLPRPVMPVAVGDAIEPAAFFYLTPEPDWLGRQDKRGASPTLVRMLAAVGQNGLDDAQIIPVSVFWGQSPDSESSPWKLLFADNWAVTGRLRKLARILILGRKTRVQFSAPIHLRELVEQGKGHERTLRMVNRILRVHFRNLKTAVIGPDLSHRRNLVKGLLRAPLVRQAISEECESERISQEKAEGIALRYANEIASDFSYPVIRFLEVILSWFWNKLYEGVKVNHIERVQDVAQGNEIVYVPCHRSHIDYLLLSYLLFRNGLTPPHIAAGINLNMPVIGSILRRGGAFFMRRSFKGNQLYTAVFNEYLHTLFSRGFSTEYFVEGGRSRTGRMLHPRTGMLAITLRSFLRDSRRPIVFVPVYIGYERVLEGRTYLGELRGATKKKESIFDLFKVVGALKQRFGQVWVNFGEPIHLDQFLDRHQPDWQDQDLGPEYRPDWLPQTTNLLAKDVARHLNDAAAINPVNLVALALLSTSRQALDESALARILDLYLALLRKVPYSPSATLPDGDGQALIEYVKSMNLLAEQKDALGRILYLDEQNAVLATYYRNNVLHVFALPALIASFFQSNSRISREQLLRFARALYPYLQAELFIRWSLDELDAVIDQWLAALVEQDLLRQENDTFIRPAPSSRQYVLLILLARSVTQTLQRFYMAIALLLNAGQNALTAEELENLCTVMAQRLSILHGLNAPEFFDKSLFRHFIQTLLDLRVLRKDEAGKLSYHELLGELAEGAAKRVLPAEIRLSIRQVALERPAEEAAAESN” as the sequence, how does the “soluble on expression in E. coli” value read?
The value was “not soluble”.

For “MSELEKTFGIKVSPGAIYPILSSLRKSGLIEVAREGKREKKLYRITEKGEEYLKKHEDEVEEALEIANKLKEFSELGGREVAQVLREVIENIDKLSEEQKTALAREFSEFVKRIKIILLGGE”, which “soluble on expression in E. coli” value is on record?
The value was “soluble”.

With “SNAEELQALVDNIPAAIYHLDVSGQATIRFRPPAFLKTLVSEHAGTTRLNTLSMIHHDDRHMLSNAYSKLREAKHSLTLVYRIVTPEGKLHWIEDHMRSSFSDDGLFSGIDGILCEVT” as the sequence, how does the “soluble on expression in E. coli” value read?
Its value is “soluble”.
